From patent US20210087522

Experiments:
[1] = target: ScACP, ACP of a putative concanamycin gene cluster from Streptomyces coelicolor A(3)2
[2] = target: T1, MACP, CP of an uncharacterized NRP/PK gene cluster from M. aeruginosa NIES843
T1 chain: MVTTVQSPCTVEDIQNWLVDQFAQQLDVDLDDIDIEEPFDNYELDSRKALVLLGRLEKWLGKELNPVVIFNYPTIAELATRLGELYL

[3] = target: T2, SsPCP, PCP of a thaxtomin cluster from Streptomyces scabiei 87.22
T2 chain: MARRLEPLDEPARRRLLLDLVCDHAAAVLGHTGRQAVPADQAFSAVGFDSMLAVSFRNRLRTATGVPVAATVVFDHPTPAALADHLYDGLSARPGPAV

[4] = target: T3, APNPCP, CP of an uncharacterized NRP/PK gene cluster from Anabaena
T3 chain: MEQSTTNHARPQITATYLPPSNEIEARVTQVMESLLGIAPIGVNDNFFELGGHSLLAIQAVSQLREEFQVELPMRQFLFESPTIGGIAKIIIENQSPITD

[5] = target: T4, SFACP, ACP of the FAS from Synechocystis
T4 chain: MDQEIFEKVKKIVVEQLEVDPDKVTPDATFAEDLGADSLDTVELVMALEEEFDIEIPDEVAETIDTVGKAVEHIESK

[6] = target: T5, AFACP, ACP of the FAS from Anabaena
T5 chain: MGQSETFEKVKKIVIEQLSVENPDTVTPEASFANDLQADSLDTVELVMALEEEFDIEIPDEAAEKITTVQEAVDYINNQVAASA

[7] = target: T6, FNPCP, CP of an uncharacterized NRP gene cluster from Fischerella
T6 chain: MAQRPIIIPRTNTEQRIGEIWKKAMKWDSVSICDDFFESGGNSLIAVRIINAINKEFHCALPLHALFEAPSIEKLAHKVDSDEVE

[8] = target: T7, FNsACP, homolog of ArCPNp from Fischerella
T7 chain: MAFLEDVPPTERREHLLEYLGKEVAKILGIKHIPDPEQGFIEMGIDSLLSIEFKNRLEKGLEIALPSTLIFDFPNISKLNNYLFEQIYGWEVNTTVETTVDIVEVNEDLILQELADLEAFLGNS

[9] = target: AprACP, ACP of the apratoxin (PK/NRP) gene cluster in Lyngbya sp.
[10] = target: T8, FisPCP, PCP of the shinorine gene cluster from Fischerella
T8 chain: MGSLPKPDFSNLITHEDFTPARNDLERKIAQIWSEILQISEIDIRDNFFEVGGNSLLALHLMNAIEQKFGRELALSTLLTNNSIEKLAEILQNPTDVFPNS

[11] = target: T9, APACP, ACP of the glycolipid PKS in Anabaena
T9 chain: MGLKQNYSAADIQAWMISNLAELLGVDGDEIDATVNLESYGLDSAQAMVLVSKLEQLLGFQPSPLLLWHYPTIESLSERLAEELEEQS

B1: FPPT, Sfp-like phosphopantetheinyl transferase (PPTase) from Fischerella sp. PCC9339 (protein)
chain: MGSETNHLWLTAPTNLTLLPDDVHVWRISLDRPESELQALQTTLSSDEIARAQRFYFEQHRQRFVAGRGILRTILGRYLGVEPQAVEFTYELRGKPLLADRFADSGVSFNLSHSQDLALCGVSRNRKIGIDVEYMRSVSDVEALAERFFAPREYEVVRSLPSNQQQQVFFRYWTCKEAYLKAIGVGIVQLEKVEISLTLEQPAKLITDEEWSLIELVPGDHYLGAVAIAGQNLDLKYWQY
With B1 the “phosphopantetheinylation of CP (apo to holo), LC-MS; no activity” value (from here on “phosphopantetheinylation of CP … no activity”) [1] was “FPPT shared the same substrate scope as SePPT with the exception of its low activity toward SsPCP”, the “phosphopantetheinylation of CP … no activity” value [2] was “FPPT shared the same substrate scope as SePPT with the exception of its low activity toward SsPCP” and the “relative activity (most active PPTase = 100%)” value [2] was “FPPT was not competent to activate SsPCP, APACP, APNPCP, MACP, and ScACP”. The “phosphopantetheinylation of CP (apo to holo), LC-MS; low activity” value [3] was “FPPT shared the same substrate scope as SePPT with the exception of its low activity toward SsPCP”, the “relative activity (most active PPTase = 100%)” value [3] was “FPPT was not competent to activate SsPCP, APACP, APNPCP, MACP, and ScACP” and the “phosphopantetheinylation of CP … no activity” value [4] was “FPPT shared the same substrate scope as SePPT with the exception of its low activity toward SsPCP”.

B2: SePPT, Sfp-like phosphopantetheinyl transferase (PPTase) from Synechococcus elongatus PCC7942 (protein)
chain: MQRPNPSDAVPVPSIPSCDRGPIPNPVTWRTSPEPLFLSAQTVHLWRCSLTRSLSSAEQAIVAADCDRAQAYGSNRRHQFLCGRWWLRQLLSLYLPEEPADFRFQLSPTGKPELPQSNLCFNLSHSGSTLLIAIAWQPVGVDVEQPRSRSWLALARRYFPSAELAAMQQSTDCDRWGLASWVCKEAWIKAQGRTLANSLRHLQCAWTANGQPRLSGLGSEESQVQLLQVDPQEQLWAAIAMPAGWNYQTWTAAIIRKNH
B2 was tested, and the “relative activity (most active PPTase = 100%)” value [5] was “SePPT demonstrated strong activity toward two ACPs of FASs but no others”, the “phosphopantetheinylation of CP … no activity” value [1] was “SePPT showed no activity toward APNPCP, MACP, ScACP, and SsPCP” and the “phosphopantetheinylation of CP … no activity” value [2] was “SePPT showed no activity toward APNPCP, MACP, ScACP, and SsPCP”. For the same protein, the “relative activity (most active PPTase = 100%)” value [6] was “SePPT demonstrated strong activity toward two ACPs of FASs but no others”, the “phosphopantetheinylation of CP … no activity” value [3] was “SePPT showed no activity toward APNPCP, MACP, ScACP, and SsPCP” and the “phosphopantetheinylation of CP … no activity” value [4] was “SePPT showed no activity toward APNPCP, MACP, ScACP, and SsPCP”.

B3: Sfp, phosphopantetheinyl transferase from Bacillus subtilis (protein)
chain: MKIYGIYMDRPLSQEENERFMTFISPEKREKCRRFYHKEDAHRTLLGDVLVRSVISRQYQLDKSDIRFSTQEYGKPCIPDLPDAHFNISHSGRWVIGAFDSQPIGIDIEKTKPISLEIAKRFFSKTEYSDLLAKDKDEQTDYFYHLWSMKESFIKQEGKGLSLPLDSFSVRLHQDGQVSIELPDSHSPCYIKTYEVDPGYKMAVCAAHPDFPEDITMVSYEELL
B3 was tested, and the Km [7] was 11.7 µM, the kcat [7] was 0.242 s⁻¹ and the kcat/Km [7] was 20000 M⁻¹ s⁻¹. The “phosphopantetheinylation of CP (apo to holo), LC-MS” value [7] was “APPT, AvPPT, MPPT and Sfp functionalized all substrates”, the Km [8] was 10.9 µM and the kcat [8] was 0.04 s⁻¹. For the same protein, the kcat/Km [8] was 3330 M⁻¹ s⁻¹, the “phosphopantetheinylation of CP (apo to holo), LC-MS” value [8] was “APPT, AvPPT, MPPT and Sfp functionalized all substrates” and the Km [5] was 2.5 µM. For the same protein, the kcat [5] was 0.0367 s⁻¹, the kcat/Km [5] was 15000 M⁻¹ s⁻¹ and the “phosphopantetheinylation of CP (apo to holo), LC-MS” value [5] was “APPT, AvPPT, MPPT and Sfp functionalized all substrates”. The Km [1] was 8.3 µM, the kcat [1] was 0.253 s⁻¹ and the kcat/Km [1] was 30000 M⁻¹ s⁻¹. For the same protein, the “phosphopantetheinylation of CP (apo to holo), LC-MS” value [1] was “APPT, AvPPT, MPPT and Sfp functionalized all substrates”, the “relative activity (most active PPTase = 100%)” value [1] was “Among all PPTases, Sfp showed the highest relative activity toward ScACP and SsPCP” and the Km [2] was 6.7 µM. The kcat [2] was 0.085 s⁻¹, the kcat/Km [2] was 13300 M⁻¹ s⁻¹ and the “phosphopantetheinylation of CP (apo to holo), LC-MS” value [2] was “APPT, AvPPT, MPPT and Sfp functionalized all substrates”. The Km [6] was 11.6 µM, the kcat [6] was 0.163 s⁻¹ and the kcat/Km [6] was 13300 M⁻¹ s⁻¹. The “phosphopantetheinylation of CP (apo to holo), LC-MS” value [6] was “APPT, AvPPT, MPPT and Sfp functionalized all substrates”, the Km [9] was 9 µM and the kcat [9] was 0.0483 s⁻¹. For the same protein, the kcat/Km [9] was 5000 M⁻¹ s⁻¹, the “phosphopantetheinylation of CP (apo to holo), LC-MS” value [9] was “APPT, AvPPT, MPPT and Sfp functionalized all substrates” and the Km [3] was 7.9 µM. For the same protein, the kcat [3] was 0.278 s⁻¹, the kcat/Km [3] was 35000 M⁻¹ s⁻¹ and the “phosphopantetheinylation of CP (apo to holo), LC-MS” value [3] was “APPT, AvPPT, MPPT and Sfp functionalized all substrates”. For the same protein, the “relative activity (most active PPTase = 100%)” value [3] was “Among all PPTases, Sfp showed the highest relative activity toward ScACP and SsPCP”, the Km [4] was 12 µM and the kcat [4] was 0.0367 s⁻¹. The kcat/Km [4] was 3330 M⁻¹ s⁻¹, the “phosphopantetheinylation of CP (apo to holo), LC-MS” value [4] was “APPT, AvPPT, MPPT and Sfp functionalized all substrates” and the Km [10] was 14 µM. For the same protein, the kcat [10] was 0.0283 s⁻¹, the kcat/Km [10] was 1670 M⁻¹ s⁻¹ and the “phosphopantetheinylation of CP (apo to holo), LC-MS” value [10] was “APPT, AvPPT, MPPT and Sfp functionalized all substrates”. The Km [11] was 15.3 µM, the kcat [11] was 0.368 s⁻¹ and the kcat/Km [11] was 25000 M⁻¹ s⁻¹. The “phosphopantetheinylation of CP (apo to holo), LC-MS” value [11] was “APPT, AvPPT, MPPT and Sfp functionalized all substrates”.

B4: SPPT, Sfp-like phosphopantetheinyl transferase (PPTase) from Synechocystis sp. PCC6803 (protein)
chain: MLPQPQIWLCPTDRPLIPGYQALLSSEEMARGERYQRPQDKQRFLTMRLALRILLARQLDCLPQQLQFTYGPQGKPELVDRERRSPWFNVAHSGNYGLIGLSTEGEIGVDLQIMLPKPHYLKLAKRFFAPQEVQQLESLEGEKRTKLFYQLWTAKEAFLKATGKGISGGLNQVIPDENLAKYQYLPDSGDTNHWRLSSQPLLADQGSNDNYWMAIAWCTNEVNQVESNYLPNIQPFQWPRNLDSLP
B4 gave a Km [7] of 7 µM, a kcat [7] of 0.168 s⁻¹ and a kcat/Km [7] of 23300 M⁻¹ s⁻¹. For the same protein, the “phosphopantetheinylation of CP (apo to holo), LC-MS” value [7] was “SPPT also phosphopantetheinylated all CP substrates except ScACP”, the Km [8] was 14.1 µM and the kcat [8] was 0.025 s⁻¹. The kcat/Km [8] was 1670 M⁻¹ s⁻¹, the “phosphopantetheinylation of CP (apo to holo), LC-MS” value [8] was “SPPT also phosphopantetheinylated all CP substrates except ScACP” and the “relative conversion (most active PPTase = 100%)” value [8] was “SPPT promoted >71% relative conversion of eight cyanobacterial CPs”. The Km [5] was 1.5 µM, the kcat [5] was 0.0233 s⁻¹ and the kcat/Km [5] was 6500 M⁻¹ s⁻¹. For the same protein, the “phosphopantetheinylation of CP (apo to holo), LC-MS” value [5] was “SPPT also phosphopantetheinylated all CP substrates except ScACP”, the “relative conversion (most active PPTase = 100%)” value [5] was “SPPT promoted >71% relative conversion of eight cyanobacterial CPs” and the “phosphopantetheinylation of CP (apo to holo), LC-MS; not modified” value [1] was “SPPT also phosphopantetheinylated all CP substrates except ScACP”. The “relative activity (most active PPTase = 100%)” value [1] was “the low or no activity toward MACP, SsPCP and ScACP”, the Km [2] was 22 µM and the kcat [2] was 0.0717 s⁻¹. For the same protein, the kcat/Km [2] was 3330 M⁻¹ s⁻¹, the “phosphopantetheinylation of CP (apo to holo), LC-MS” value [2] was “SPPT also phosphopantetheinylated all CP substrates except ScACP” and the “relative activity (most active PPTase = 100%)” value [2] was “the low or no activity toward MACP, SsPCP and ScACP”. The Km [6] was 13.3 µM, the kcat [6] was 0.245 s⁻¹ and the kcat/Km [6] was 18300 M⁻¹ s⁻¹. For the same protein, the “phosphopantetheinylation of CP (apo to holo), LC-MS” value [6] was “SPPT also phosphopantetheinylated all CP substrates except ScACP”, the “relative conversion (most active PPTase = 100%)” value [6] was “SPPT promoted >71% relative conversion of eight cyanobacterial CPs” and the Km [9] was 12.9 µM. For the same protein, the kcat [9] was 0.218 s⁻¹, the kcat/Km [9] was 16700 M⁻¹ s⁻¹ and the “phosphopantetheinylation of CP (apo to holo), LC-MS” value [9] was “SPPT also phosphopantetheinylated all CP substrates except ScACP”. The “relative conversion (most active PPTase = 100%)” value [9] was “SPPT promoted >71% relative conversion of eight cyanobacterial CPs”, the Km [3] was 14.3 µM and the kcat [3] was 0.0167 s⁻¹. For the same protein, the kcat/Km [3] was 1000 M⁻¹ s⁻¹, the “phosphopantetheinylation of CP (apo to holo), LC-MS” value [3] was “SPPT also phosphopantetheinylated all CP substrates except ScACP” and the “relative activity (most active PPTase = 100%)” value [3] was “the low or no activity toward MACP, SsPCP and ScACP”. It also gave a Km [4] of 17 µM, a kcat [4] of 0.0383 s⁻¹ and a kcat/Km [4] of 1670 M⁻¹ s⁻¹. For the same protein, the “phosphopantetheinylation of CP (apo to holo), LC-MS” value [4] was “SPPT also phosphopantetheinylated all CP substrates except ScACP”, the Km [10] was 10 µM and the kcat [10] was 0.0417 s⁻¹. The kcat/Km [10] was 5000 M⁻¹ s⁻¹, the “phosphopantetheinylation of CP (apo to holo), LC-MS” value [10] was “SPPT also phosphopantetheinylated all CP substrates except ScACP” and the Km [11] was 26.5 µM. The kcat [11] was 0.243 s⁻¹, the kcat/Km [11] was 8330 M⁻¹ s⁻¹ and the “phosphopantetheinylation of CP (apo to holo), LC-MS” value [11] was “SPPT also phosphopantetheinylated all CP substrates except ScACP”. For the same protein, the “relative conversion (most active PPTase = 100%)” value [11] was “SPPT promoted >71% relative conversion of eight cyanobacterial CPs”.
